Biological target: α7-2-nAChR (homomeric receptor of the rat α7-2 splice variant subunit expressed in Xenopus oocytes) (rat, UniProt Q05941 28-502)
Assay: summary statement; no assay given at this place

B1: α-bungarotoxin (ligand)
chain: IVCHTTATSPISAVTCPPGENLCYRKMWCDAFCSSRGKVVELGCAATCPSKKPYEEVTCCSTDKCNPHPKQRPG
- binding result: binds
